Assay results taken from paper PMC4961225, “The Molecular Basis for Ubiquitin and Ubiquitin-like Specificities in Bacterial Effector Proteases” (Molecular Cell, 2016).

Target: T1, ubiquitin (uniformly 15N-labeled Ub) (UniProt P0CG48 1-76)
T1 construct: also called 15N-Ub
Assay: NMR titration; uniformly 15N-labeled Ub observed (1H,15N-HSQC TROSY; 80 μM Ub in Figure 6), unlabeled partner added; 25°C
Conditions: both partners purified

B1: SseL (aa 24–340) (domain or fragment)
chain: VSDEALTLLFSAVENGDQNCIDLLCNLALRNDDLGHRVEKFLFDLFSGKRTGSSDIDKKINQACLVLHQIANNDITKDNTEWKKLHAPSRLLYMAGSATTDLSKKIGIAHKIMGDQFAQTDQEQVGVENLWCGARMLSSDELAAATQGLVQESPLLSVNYPIGLIHPTTKENILSTQLLEKIAQSGLSHNEVFLVNTGDHWLLCLFYKLAEKIKCLIFNTYYDLNENTKQEIIEAAKIAGISESDEVNFIEMNLQNNVPNGCGLFCYHTIQLLSNAGQNDPATTLREFAENFLTLSVEEQALFNTQTRRQIYEYSLQ
B1: binds.
